Measured values as given in patent US20190062420A1 (Janssen / Centocor, published 2019).

T1: human FcγRIIB (NM_004001) expressed on cells (human, UniProt P31994 43-310)
T1 sequence: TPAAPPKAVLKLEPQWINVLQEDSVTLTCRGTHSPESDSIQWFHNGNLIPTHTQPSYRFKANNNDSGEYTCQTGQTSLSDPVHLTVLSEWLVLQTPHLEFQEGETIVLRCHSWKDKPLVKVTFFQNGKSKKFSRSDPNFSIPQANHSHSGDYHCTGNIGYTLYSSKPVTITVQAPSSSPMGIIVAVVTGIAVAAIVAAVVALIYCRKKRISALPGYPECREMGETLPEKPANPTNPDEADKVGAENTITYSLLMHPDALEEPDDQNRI

T2: human OX40 expressed on HEK-Blue: OX40 cells (human, UniProt P43489 29-277)
T2 construct: also called CD134
T2 sequence: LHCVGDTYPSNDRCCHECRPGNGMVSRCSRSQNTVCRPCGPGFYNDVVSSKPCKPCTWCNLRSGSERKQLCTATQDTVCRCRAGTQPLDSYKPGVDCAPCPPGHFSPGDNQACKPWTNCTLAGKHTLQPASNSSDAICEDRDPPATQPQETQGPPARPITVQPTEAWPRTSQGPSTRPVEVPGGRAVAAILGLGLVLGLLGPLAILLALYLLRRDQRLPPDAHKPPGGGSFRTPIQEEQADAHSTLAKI

T3: human FcγRIIA (NM_021642) expressed on cells (human, UniProt P12318 36-317)
T3 construct: Transiently expressed on Expi293F cells; also used here for FcγRIIA on human macrophages in the ADCP assay; also called Expi293F FcγRIIA; HEK293F cells expressing FcγRIIA
T3 sequence: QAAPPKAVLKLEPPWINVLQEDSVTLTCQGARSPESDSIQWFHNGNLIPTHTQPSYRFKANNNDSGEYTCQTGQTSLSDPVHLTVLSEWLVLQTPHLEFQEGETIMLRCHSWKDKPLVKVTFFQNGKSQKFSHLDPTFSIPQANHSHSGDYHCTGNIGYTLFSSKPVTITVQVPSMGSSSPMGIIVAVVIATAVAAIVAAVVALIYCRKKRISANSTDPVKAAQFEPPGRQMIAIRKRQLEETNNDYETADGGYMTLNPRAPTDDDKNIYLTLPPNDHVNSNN


Tests used:
[1] = molecular target: T1, human FcγRIIB (NM_004001) expressed on …; assay: cell-based or functional assay
[2] = molecular target: T2, human OX40 expressed on HEK-Blue: OX40 …; assay: flow cytometry; HEK-Blue: OX40 cells
Method: (§1) 2×10⁵ cells per well were seeded in 96-well plate and blocked in BSA Stain Buffer (BD Biosciences, San Jose, USA) for 30 min at 4° C. Cells were incubated with test mAbtyrin on ice for 1.5 h at 4° C. After being washed twice with BSA stain buffer, the cells were incubated with R-PE labeled anti-human or anti-mouse IgG secondary antibody (Jackson Immunoresearch Laboratories) for 45 min at 4° C. The cells were washed twice in stain buffer and then resuspended in 150 μL of Stain Buffer containing 1:200 diluted DRAQ7 live/dead stain (Cell Signaling Technology, Danvers, USA). PE and DRAQ7 signals of the stained cells were detected by Miltenyi MACSQuant flow cytometer (Miltenyi Biotec, Auburn, USA) using B2 and B4 channel respectively. Live cells were gated on DRAQ7 exclusion and the geometric mean fluorescence signals were determined for at least 10,000 live events collected. FlowJo software (Tree Star) was used for analysis. Data was plotted as the logarithm of antibody concentration versus mean fluorescence signals. Nonlinear regression analysis was performed by GraphPad Prism 6 (GraphPad Software, Inc.) and EC₅₀ values were calculated.
The binding of mAbtyrins on OX40 expressed on cell surface were investigated by flow cytometry assay described for testing mAbtyrin binding to FcγR. A stable HEK-Blue reporter cell line expressing human OX40 (HEK-Blue: OX40) was established by transfection OX40 expression plasmid (pUNO1-hOX40) into HEK-Blue™ Null 1 cells engineered to express a secreted embryonic alkaline phosphatase (SEAP) reporter gene under the control of NF-κB-inducible promoter (IFN-β minimal promoter). mAbtyrins were incubated with HEK-Blue: OX40 cells and the binding was detected by flow cytometry using a PE-labeled Goat F(ab′)₂ against Human IgG(γ).

[3] = molecular target: T3, human FcγRIIA (NM_021642) expressed on …; assay: flow cytometry; Expi293F cells transfected with FcγRIIA
Method: (§2) Plasmids expressing cDNAs encoding human FcγRI (NM_000566) (SEQ ID NO: 44), FcγRIIA (NM_021642) (SEQ ID NO: 2), FcγRIIB (NM_004001) (SEQ ID NO: 3), and FcγRIIIA (NM_000569) (SEQ ID NO: 45) (Origene) were transiently transfected into Expi293F cells by ExpiFectamine293 transfection kit (Life Technologies). Flow cytometry assays were performed 48 h after transfection.
as §1

[4] = molecular target: T1, human FcγRIIB (NM_004001) expressed on …; assay: flow cytometry; Raji cells (express predominantly FcγRIIB)
[5] = molecular target: T1, human FcγRIIB (NM_004001) expressed on …; assay: as above; remark: listed apart in the source
Method: as §1
Raji cell is a cell line derived from B cells that express predominantly FcγRIIB. The binding of mAbtyrins on Raji cells were investigated by flow cytometry assay described for testing mAbtyrin binding to FcγR. Binding of the mAbtyrins were detected by flow cytometry using a PE-labeled Goat F(ab′) against Human IgG(γ).

[6] = molecular target: T3, human FcγRIIA (NM_021642) expressed on …; assay: cell-based or functional assay
[7] = molecular target: T1, human FcγRIIB (NM_004001) expressed on …; assay: flow cytometry; Expi293F cells transfected with FcγRIIB
Method: as §2, §1

Binder | % activity at 1 µg/ml with Raji cells (HEK-Blue: OX40 NF-κB reporter, relative to 1 µg/ml OX40 ligand) [1] [%] | fold of agonism enhancement upon crosslinking (Raji cells) [1] [fold] | Binding to HEK-Blue: OX40 cells (mean signal at 1 µg/ml) [2] [mean fluorescence signal] | EC50 [3] [µg/mL] | fold binding signal over OX40SF2IgG2sigma at 10 µg/mL [4] [fold] | Binding to Raji cells mean signals at 10 µg/ml [5] [mean fluorescence signal] | EC50 [5] [µg/mL] | % OX40 cell killed by macrophages (ADCP, 1 µg/ml) [6] [%] | EC50 [7] [µg/mL]
OX40SF2IgG2sigma_R2BS9_HC-C (bispecific antibody, mAbtyrin: anti-OX40 antibody OX40SF2, effector silent IgG2sigma, with linker and R2BS9 FN3 domain at the C-terminus of the heavy chain; also called mAbtyrin) heavy: QVQLVQSGAEVKKPGSSVKVSCKASGYTFKDYTMHWVRQAPGQGLEWIGGIYPNNGGSTYNQNFKDRVTLTADKSTSTAYMELSSLRSEDTAVYYCARMGYHGPHLDFDVWGQGTTVTVSSASTKGPSVFPLAPCSRSTSESTAALGCLVKDYFPEPVTVSWNSGALTSGVHTFPAVLQSSGLYSLSSVVTVPSSNFGTQTYTCNVDHKPSNTKVDKTVERKCCVECPPCPAPPAAASSVFLFPPKPKDTLMISRTPEVTCVVVDVSAEDPEVQFNWYVDGVEVHNAKTKPREEQFNSTFRVVSVLTVLHQDWLNGKEYKCKVSNKGLPSSIEKTISKTKGQPREPQVYTLPPSREEMTKNQVSLTCLVKGFYPSDIAVEWESNGQPENNYKTTPPMLDSDGSFFLYSKLTVDKSRWQQGNVFSCSVMHEALHNHYTQKSLSLSPGKGGGGGSGGGGSGGGGSGGGGSLPAPKNLVVSRVTEDSARLSWTAPDAAFDSFWIYYLEYWRGGEAIVLTVPGSERSYDLTGLKPGTEYFVQIHGVKGGQYSYPLSAIFTT light: DIQMTQSPSSLSASVGDRVTITCKASQDVGAAVAWYQQKPGKAPKLLIYWASTRHTGVPSRFSGSGSGTDFTLTISSLQPEDFATYYCQQYINYPLTFGGGTKVEIKRTVAAPSVFIFPPSDEQLKSGTASVVCLLNNFYPREAKVQWKVDNALQSGNSQESVTEQDSKDSTYSLSSTLTLSKADYEKHKVYACEVTHQGLSSPVTKSFNRGEC | 88.1 | 21 | 8900 | 0.498 | ≥ 6 | 3260 | > 10 | 85 | 1.51
OX40SF2IgG2sigma_R2BS12_HC-C (bispecific antibody, mAbtyrin: anti-OX40 antibody OX40SF2, effector silent IgG2sigma, with linker and R2BS12 FN3 domain at the C-terminus of the heavy chain; also called mAbtyrin) heavy: QVQLVQSGAEVKKPGSSVKVSCKASGYTFKDYTMHWVRQAPGQGLEWIGGIYPNNGGSTYNQNFKDRVTLTADKSTSTAYMELSSLRSEDTAVYYCARMGYHGPHLDFDVWGQGTTVTVSSASTKGPSVFPLAPCSRSTSESTAALGCLVKDYFPEPVTVSWNSGALTSGVHTFPAVLQSSGLYSLSSVVTVPSSNFGTQTYTCNVDHKPSNTKVDKTVERKCCVECPPCPAPPAAASSVFLFPPKPKDTLMISRTPEVTCVVVDVSAEDPEVQFNWYVDGVEVHNAKTKPREEQFNSTFRVVSVLTVLHQDWLNGKEYKCKVSNKGLPSSIEKTISKTKGQPREPQVYTLPPSREEMTKNQVSLTCLVKGFYPSDIAVEWESNGQPENNYKTTPPMLDSDGSFFLYSKLTVDKSRWQQGNVFSCSVMHEALHNHYTQKSLSLSPGKGGGGGSGGGGSGGGGSGGGGSLPAPKNLVVSRVTEDSARLSWTAPDAAFDSFLIAYAEYWEGGEAVVLTVPGSERSYDLTGLKPGTEYFVQINGVKGGFWSIPLSAIFTT light: DIQMTQSPSSLSASVGDRVTITCKASQDVGAAVAWYQQKPGKAPKLLIYWASTRHTGVPSRFSGSGSGTDFTLTISSLQPEDFATYYCQQYINYPLTFGGGTKVEIKRTVAAPSVFIFPPSDEQLKSGTASVVCLLNNFYPREAKVQWKVDNALQSGNSQESVTEQDSKDSTYSLSSTLTLSKADYEKHKVYACEVTHQGLSSPVTKSFNRGEC | 96.3 | 31 | 9710 | 0.302 | ≥ 6 | 2610 | > 10 | 92 | 0.926
